In the supplement of paper PMC10266784:

B1: library; numbered along this chain (parent)
chain: MAAAAAAAAEQQSSNGPVKKSMREKAVERRSVNKEHNSNFKAGYIPIDEDRLHKTGLRGRKGNLAICVIILLFILAVINLIITLVIWAVIRIGPNGCDSMEFHESGLLRFKQVSDMGVIHPLYKSTVGGRRNENLVITGNNQPIVFQQGTTKLSVENNKTSITSDIGMQFFDPRTQNILFSTDYETHEFHLPSGVKSLNVQKASTERITSNATSDLNIKVDGRAIVRGNEGVFIMGKTIEFHMGGNMELKAENSIILNGSVMVSTTRLPSSSSGDQLGSGDWVRYKLCMCADGTLFKVQVTSQNMGCQISDNPCGNTH

Variants of: B1
Test: SGCB cell-surface expression functional score (HA stain, bin4 vs bin1, normalised to synonymous) (log10 ratio); higher = more cell-surface SGCB (functional)
Method: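 Deep mutational scan of full-length human SGCB (YFP-SGCB-HA, NNN codon sublibraries A-F) delivered by lentivirus at low MOI into ADG-HEK293 cells stably expressing SGCA, SGCD and SGCG. YFP-positive cells were stained for surface HA on unpermeabilized cells and FACS-sorted into bins. The functional score is log10(frequency in high bin 4 / frequency in low bin 1), normalised per chunk so that synonymous variants have mean 0 and SD 0.5. Scores are the median over codons and over duplicate biological replicates; scores below -0.5 are called non-functional. Scale: negative means deleterious.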
For MAAAAAAAVEQQSSNGPVKKSMREKAVERRSVNKEHNSNFKAGYIPIDEDRLHKTGLRGRKGNLAICVIILLFILAVINLIITLVIWAVIRIGPNGCDSMEFHESGLLRFKQVSDMGVIHPLYKSTVGGRRNENLVITGNNQPIVFQQGTTKLSVENNKTSITSDIGMQFFDPRTQNILFSTDYETHEFHLPSGVKSLNVQKASTERITSNATSDLNIKVDGRAIVRGNEGVFIMGKTIEFHMGGNMELKAENSIILNGSVMVSTTRLPSSSSGDQLGSGDWVRYKLCMCADGTLFKVQVTSQNMGCQISDNPCGNTH [A9V], the “SGCB cell-surface expression functional score (log10)” value was 0.15. In the case of MAAAAAAAYEQQSSNGPVKKSMREKAVERRSVNKEHNSNFKAGYIPIDEDRLHKTGLRGRKGNLAICVIILLFILAVINLIITLVIWAVIRIGPNGCDSMEFHESGLLRFKQVSDMGVIHPLYKSTVGGRRNENLVITGNNQPIVFQQGTTKLSVENNKTSITSDIGMQFFDPRTQNILFSTDYETHEFHLPSGVKSLNVQKASTERITSNATSDLNIKVDGRAIVRGNEGVFIMGKTIEFHMGGNMELKAENSIILNGSVMVSTTRLPSSSSGDQLGSGDWVRYKLCMCADGTLFKVQVTSQNMGCQISDNPCGNTH [A9Y], the “SGCB cell-surface expression functional score (log10)” value is reported as 0.45. For MAAAAAAAWEQQSSNGPVKKSMREKAVERRSVNKEHNSNFKAGYIPIDEDRLHKTGLRGRKGNLAICVIILLFILAVINLIITLVIWAVIRIGPNGCDSMEFHESGLLRFKQVSDMGVIHPLYKSTVGGRRNENLVITGNNQPIVFQQGTTKLSVENNKTSITSDIGMQFFDPRTQNILFSTDYETHEFHLPSGVKSLNVQKASTERITSNATSDLNIKVDGRAIVRGNEGVFIMGKTIEFHMGGNMELKAENSIILNGSVMVSTTRLPSSSSGDQLGSGDWVRYKLCMCADGTLFKVQVTSQNMGCQISDNPCGNTH [A9W], the “SGCB cell-surface expression functional score (log10)” value was -0.24. In the case of MAAAAAAATEQQSSNGPVKKSMREKAVERRSVNKEHNSNFKAGYIPIDEDRLHKTGLRGRKGNLAICVIILLFILAVINLIITLVIWAVIRIGPNGCDSMEFHESGLLRFKQVSDMGVIHPLYKSTVGGRRNENLVITGNNQPIVFQQGTTKLSVENNKTSITSDIGMQFFDPRTQNILFSTDYETHEFHLPSGVKSLNVQKASTERITSNATSDLNIKVDGRAIVRGNEGVFIMGKTIEFHMGGNMELKAENSIILNGSVMVSTTRLPSSSSGDQLGSGDWVRYKLCMCADGTLFKVQVTSQNMGCQISDNPCGNTH [A9T], the “SGCB cell-surface expression functional score (log10)” value is reported as 0.39. With MAAAAAAAACQQSSNGPVKKSMREKAVERRSVNKEHNSNFKAGYIPIDEDRLHKTGLRGRKGNLAICVIILLFILAVINLIITLVIWAVIRIGPNGCDSMEFHESGLLRFKQVSDMGVIHPLYKSTVGGRRNENLVITGNNQPIVFQQGTTKLSVENNKTSITSDIGMQFFDPRTQNILFSTDYETHEFHLPSGVKSLNVQKASTERITSNATSDLNIKVDGRAIVRGNEGVFIMGKTIEFHMGGNMELKAENSIILNGSVMVSTTRLPSSSSGDQLGSGDWVRYKLCMCADGTLFKVQVTSQNMGCQISDNPCGNTH [E10C] the “SGCB cell-surface expression functional score (log10)” value was 0.47. With MAAAAAAAAAQQSSNGPVKKSMREKAVERRSVNKEHNSNFKAGYIPIDEDRLHKTGLRGRKGNLAICVIILLFILAVINLIITLVIWAVIRIGPNGCDSMEFHESGLLRFKQVSDMGVIHPLYKSTVGGRRNENLVITGNNQPIVFQQGTTKLSVENNKTSITSDIGMQFFDPRTQNILFSTDYETHEFHLPSGVKSLNVQKASTERITSNATSDLNIKVDGRAIVRGNEGVFIMGKTIEFHMGGNMELKAENSIILNGSVMVSTTRLPSSSSGDQLGSGDWVRYKLCMCADGTLFKVQVTSQNMGCQISDNPCGNTH [E10A] the “SGCB cell-surface expression functional score (log10)” value was 0.17. For MAAAAAAAAHQQSSNGPVKKSMREKAVERRSVNKEHNSNFKAGYIPIDEDRLHKTGLRGRKGNLAICVIILLFILAVINLIITLVIWAVIRIGPNGCDSMEFHESGLLRFKQVSDMGVIHPLYKSTVGGRRNENLVITGNNQPIVFQQGTTKLSVENNKTSITSDIGMQFFDPRTQNILFSTDYETHEFHLPSGVKSLNVQKASTERITSNATSDLNIKVDGRAIVRGNEGVFIMGKTIEFHMGGNMELKAENSIILNGSVMVSTTRLPSSSSGDQLGSGDWVRYKLCMCADGTLFKVQVTSQNMGCQISDNPCGNTH [E10H], the “SGCB cell-surface expression functional score (log10)” value was 0.08. For MAAAAAAAADQQSSNGPVKKSMREKAVERRSVNKEHNSNFKAGYIPIDEDRLHKTGLRGRKGNLAICVIILLFILAVINLIITLVIWAVIRIGPNGCDSMEFHESGLLRFKQVSDMGVIHPLYKSTVGGRRNENLVITGNNQPIVFQQGTTKLSVENNKTSITSDIGMQFFDPRTQNILFSTDYETHEFHLPSGVKSLNVQKASTERITSNATSDLNIKVDGRAIVRGNEGVFIMGKTIEFHMGGNMELKAENSIILNGSVMVSTTRLPSSSSGDQLGSGDWVRYKLCMCADGTLFKVQVTSQNMGCQISDNPCGNTH [E10D], the “SGCB cell-surface expression functional score (log10)” value was 0.45. In the case of MAAAAAAAAGQQSSNGPVKKSMREKAVERRSVNKEHNSNFKAGYIPIDEDRLHKTGLRGRKGNLAICVIILLFILAVINLIITLVIWAVIRIGPNGCDSMEFHESGLLRFKQVSDMGVIHPLYKSTVGGRRNENLVITGNNQPIVFQQGTTKLSVENNKTSITSDIGMQFFDPRTQNILFSTDYETHEFHLPSGVKSLNVQKASTERITSNATSDLNIKVDGRAIVRGNEGVFIMGKTIEFHMGGNMELKAENSIILNGSVMVSTTRLPSSSSGDQLGSGDWVRYKLCMCADGTLFKVQVTSQNMGCQISDNPCGNTH [E10G], the “SGCB cell-surface expression functional score (log10)” value is reported as 0.28. For MAAAAAAAAFQQSSNGPVKKSMREKAVERRSVNKEHNSNFKAGYIPIDEDRLHKTGLRGRKGNLAICVIILLFILAVINLIITLVIWAVIRIGPNGCDSMEFHESGLLRFKQVSDMGVIHPLYKSTVGGRRNENLVITGNNQPIVFQQGTTKLSVENNKTSITSDIGMQFFDPRTQNILFSTDYETHEFHLPSGVKSLNVQKASTERITSNATSDLNIKVDGRAIVRGNEGVFIMGKTIEFHMGGNMELKAENSIILNGSVMVSTTRLPSSSSGDQLGSGDWVRYKLCMCADGTLFKVQVTSQNMGCQISDNPCGNTH [E10F], the “SGCB cell-surface expression functional score (log10)” value was -0.46.
